± gives the uncertainty stated by the source.
Experiment: amyloid nucleation score (Sup35N fusion, yeast selection) (log enrichment); library NNK2; higher = more nucleation; inactive = no reads after selection
Summary of the method: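 Sup35N fusions to peptides of 20 random codons were expressed in psi-negative yeast, induced 24 hours with 100 μM copper sulfate, and grown 7 days at 30°C on medium lacking adenine and uracil. Input and output plasmid inserts were sequenced by Illumina. The nucleation score is the DiMSum log enrichment of output over input reads, centred on the mode score of non-aggregating sequences. Sequences with under 100 input reads were excluded.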
Substance MSSIDFSFCTSSLRTYSIVR has an amyloid nucleation score of 0.155 ± 1.1. In the case of FDTGSRYFFNELRGGNCHCW, the amyloid nucleation score is reported as 1.26 ± 0.21. With FLVIVTVNLMYESQRMGSPV the amyloid nucleation score was “inactive”. In the case of LEYCDATLVVRDRQVSAVFL, the amyloid nucleation score is reported as 0.584 ± 0.35. Work on SCSDMIKYHHTVELSLVSAT yielded an amyloid nucleation score of 0.295 ± 1. Substance SYFSVKHDRR has an amyloid nucleation score of -0.228 ± 0.35. With DISCCLYRDTPVWERKDYVA the amyloid nucleation score was -0.506 ± 1. RLPAFSRFG gave an amyloid nucleation score of -0.452 ± 0.37. In the case of VFIMGPTS, the amyloid nucleation score is reported as 3.96 ± 0.092. For MLVSGSSLEW, the amyloid nucleation score was 0.264 ± 0.42. FNVLIACWGYKDNFNVYSCE gave an amyloid nucleation score of 5.844 ± 0.035. LIFYIVNHECINGRYALVGY showed an amyloid nucleation score of 0.448 ± 0.62. For FDDLLEARYSFSVKVCY, the amyloid nucleation score was -0.947 ± 0.35. NRKEQVVPLHVRSPI showed an amyloid nucleation score of 1.13 ± 0.17. NIVKGFRCLCVNLTDFRETR showed an amyloid nucleation score of 4.09 ± 0.12. With SSSKRNSKDPSGLGLVCVE the amyloid nucleation score was 0.795 ± 0.46. In the case of SLTASCI, the amyloid nucleation score is reported as -0.471 ± 0.76. FEVYKANDIEIYYAVCEMGV gave an amyloid nucleation score of -1.34 ± 0.26. HRVAVTKYATRYIPLIMLNW showed an amyloid nucleation score of -0.354 ± 0.49. With MLCCCTLQVGFAYIFLFL the amyloid nucleation score was 3.28 ± 0.15. With LLSKFF the amyloid nucleation score was “inactive”. RKAFIHVDKRLDSSIGTRSG gave an amyloid nucleation score of 0.321 ± 0.41. RCLSYFGLKLLRVSRLFIDL gave an amyloid nucleation score of 0.034 ± 0.28. With FNTCGSHRSGRRFL the amyloid nucleation score was “inactive”. GWKDGLAASSF showed an amyloid nucleation score of 1.01 ± 0.2. In the case of YTVRKNNLVVQESMFLSKCW, the amyloid nucleation score is reported as 0.855 ± 0.12. For DFYNRASLSYTSDVASGSPC, the amyloid nucleation score was “inactive”. With LFARLLLHYVTS the amyloid nucleation score was 9.204 ± 0.08. With GQNRKLLDLIYRMLGSLLWH the amyloid nucleation score was 0.309 ± 0.8. With CCKMGRRDLRFLSDFVLCKL the amyloid nucleation score was “inactive”. With YFQKGFDVARIHLSFTLVLY the amyloid nucleation score was -0.913 ± 1. With YLYKLFGDDFGDWFLICFFR the amyloid nucleation score was “inactive”. With IWLLHQCSLATLGFC the amyloid nucleation score was -1.25 ± 0.62. Substance CSVSGNLQISFYGNMPINSF has an amyloid nucleation score of -0.924 ± 0.78. FSMLRVYHLRPDLRVFCCAF showed an amyloid nucleation score of -0.108 ± 1.1. For FIERSSLEDNVSSALAISR, the amyloid nucleation score was 0.704 ± 0.47. Substance LYVCHKICSSCLKGW has an amyloid nucleation score of -1.11 ± 0.61. SPLVLGFSRK gave an amyloid nucleation score of -1.02 ± 0.76. In the case of SWTHRAGYIKRMSE, the amyloid nucleation score is reported as -0.212 ± 0.55. VYIVHVPSQFWL gave an amyloid nucleation score of 6.37 ± 0.08. Work on ILISRIFIFDNYMIYLCCCG yielded an amyloid nucleation score of -0.762 ± 0.79. Substance SKLNAHVLAVFRLNEMNNHQ has an amyloid nucleation score of 3.48 ± 0.056. In the case of KSIRAYYYVSRQ, the amyloid nucleation score is reported as 0.263 ± 0.25. Substance RCRHLLSMPLPVSFEMDGRG has an amyloid nucleation score of 2.85 ± 0.099. Work on YYVSSVLWIRYYQGNRTRSW yielded an amyloid nucleation score of -0.901 ± 0.44. Work on VSTKVGSSYEVVGYKVSHFG yielded an amyloid nucleation score of -0.291 ± 0.76. FFFMTKNFKIFTSALDVPSE gave an amyloid nucleation score of -1.14 ± 1.1. Work on IRPLFTVLGRKTRQIFTM yielded an amyloid nucleation score of -0.283 ± 1. LYVGYSDMPVWSPASVCISI gave an amyloid nucleation score of 0.001 ± 0.65. Work on LIYPANDANNSTR yielded an amyloid nucleation score of -0.616 ± 0.64. RSLSSPSRKLKLTNLWI gave an amyloid nucleation score of -0.226 ± 1.1. For VDREKKEKTLVDGTQMVTCL, the amyloid nucleation score was 1.12 ± 0.32. GVPIGKKYRTSVCENMEGSW showed an amyloid nucleation score of -0.627 ± 0.31. FYWHCKGWQRISLGRFIGDC showed an amyloid nucleation score of -0.622 ± 0.61. Work on CLSLFTSYV yielded an amyloid nucleation score of 0.415 ± 0.31. In the case of QFRAWWFTSVDRTPSDNHTV, the amyloid nucleation score is reported as 4.99 ± 0.059. Work on MVMANHRSYRY yielded an amyloid nucleation score of 7.663 ± 0.026. Work on FINLYRVGVVCFILNKVGYF yielded an amyloid nucleation score of 3.71 ± 0.052. In the case of VQVVLNSETSSCASLRCMTY, the amyloid nucleation score is reported as 8.047 ± 0.029. In the case of FASCRIVSRG, the amyloid nucleation score is reported as “inactive”. HLSCDWVLIDEGLACYM gave an amyloid nucleation score of -0.586 ± 0.54. Substance VTIYRGVRFGTFLPCRVRYG has an amyloid nucleation score of 1.48 ± 0.26. For VHLNTFATFMGWLTDSWLGV, the amyloid nucleation score was “inactive”. Substance HETLQASIFVLLIHTKYHES has an amyloid nucleation score of -1.58 ± 1. IDKGSKVFTGLGLLFCSKYF gave an amyloid nucleation score of 7.2 ± 0.074. In the case of CTFSVF, the amyloid nucleation score is reported as -1.71 ± 0.48. MLLVVYGQVRTISLLRRRSS showed an amyloid nucleation score of -0.243 ± 0.74. Substance SLIVAIRFTA has an amyloid nucleation score of 2.5 ± 0.24. FLSRSQRCMIG gave an amyloid nucleation score of 0.313 ± 0.64. In the case of HLSFGFRRNRR, the amyloid nucleation score is reported as 0.967 ± 0.2. For GWFMNCTLVVKVTDTEIGLY, the amyloid nucleation score was “inactive”. For TYLKHVRKS, the amyloid nucleation score was 1.11 ± 0.24. Work on FCISFRTRSDPRSHSSGAIE yielded an amyloid nucleation score of 0.498 ± 0.54. LLCNWSPTLRHYFMRWDLGC gave an amyloid nucleation score of -0.901 ± 0.36. Work on YVRGSDGSKKPWVYSAVGIF yielded an amyloid nucleation score of -0.793 ± 1.1. Substance YSVGCCLRYYRSN has an amyloid nucleation score of 0.661 ± 0.8. In the case of MRNPYFRHCRFITRRVVFID, the amyloid nucleation score is reported as “inactive”. HYLAFVCIIFSLLRLITQPM showed an amyloid nucleation score of 2.53 ± 0.18. IYLHFGNLLNYFETRRTVFR gave an amyloid nucleation score of 6.19 ± 0.087. With YLCYNALNDFD the amyloid nucleation score was -0.445 ± 0.41. SRTAWVDLPDCWQVVKFGSV gave an amyloid nucleation score of -0.025 ± 1.1. Substance SHCTLKNLV has an amyloid nucleation score of -0.27 ± 1.1. In the case of IAPLWPYLNPYRVIFF, the amyloid nucleation score is reported as “inactive”. For ITLSSS, the amyloid nucleation score was 0.853 ± 0.2. Work on VHIYQTPPLKCIWSMDKTPA yielded an amyloid nucleation score of -0.442 ± 1. Work on FEDIFCWVY yielded an amyloid nucleation score of -1.79 ± 0.76. HEGIDVSMPHQDRTAADNLA gave an amyloid nucleation score of 0.409 ± 0.53.
